Reference: patent publication US20190351049A1 (Regeneron, published 2019)
Where two headings read alike, the source gives them in different places.

Columns and labels:
[1] = target: T1, MERS-CoV spike protein (EMC/2012), wt (MERS-CoV (isolate EMC/2012), UniProt K9N5Q8 18-1353); experiment: cell-based or functional assay
MERS-RBD-mFc = MERS-RBD-mFc (MERS-CoV (isolate EMC/2012), UniProt K9N5Q8 367-606); experiment: Octet BLI, MERS.mFc captured on the sensor, then mAb-1 applied
[2] = target: T1, MERS-CoV spike protein (EMC/2012), wt; experiment: cell-based or functional assay; remark: listed apart in the source
[3] = target: T1, MERS-CoV spike protein (EMC/2012), wt; experiment: cell-based or functional assay; remark: listed apart in the source

Row | Binder | IC50 against MERSpp [1] [pM] | IC50 against live virus (EMC2012) [1] [pM] | mAb-1 Binding (nm) (MERS-RBD-mFc) | % Neutralization (.025 µg/ml), MERSpp infectivity [2] [%] | Neutralization IC50 (M), MERSpp infectivity [2] [M] | IC50 against MERSpp [3] [pM] | IC50 against live virus (EMC2012) [3] [pM]
1 | H1H15237P2 (antibody, V domains shown) VH: EVQLVESGGGLVQPGGSLRLSCAASGFTSNSYPMSWVRQAPGKGLEWVSGISGRGGNTYYADSVKGRFTISRDNSKNTLYLQMNSLRVEDTAVYYCAETGTAFDYWGQGTLVTVSS VL: not shown | 66 | 1010 | 0.39 |  |  |  | 
2 | H1M15280N (antibody, V domains shown) VH: EVQLLESGGGLVQPGGSLRLSCAASGFTFSSYAMSWVRQAPGKGLEWVSAISGSGSSTYYADSVKGRFTISRDNSKNTLFLQMNSLRAEDTAVYYCAEGGDVDFDYWGQGTLVTVSS VL: not shown |  |  |  | 97 | 1.76e-10 | 111 | 763
3 | H1H15231P2 (antibody, V domains shown) VH: QLQLQESGPGLVKPSETLSLTCTVSGGSISSNTYYWGWIRQPPGKGLEWIGTIYYTGNTYYKSSLKSRVTISVDTSRNQFSLKLTSVTAADTAVYYCARQFADLNYVDYWGQGTLVTVSS VL: not shown | 102 | 920 | 0.5 |  |  |  | 
4 | H1H15188P (antibody, V domains shown) VH: QVQLVQSGAEVKKPGSSVKVSCKASGGSFSVYAISWVRQAPGQGLEWMGGIIPIFGTANYAQKFQDRFTITTDESTSTAYMELSSLRSEDTAMYYCAREGDIVVLPAGKGGMDVWGQGTTVTVSS VL: DIVMTQSPLSLPVTPGEPASISCRSSQSLLHGNGYNYLDWYLQKPGQSPQLLIYLVSHRASGVPDRFSGSGSGTDFTLKISRVEAEDVGVYYCMQALQSPWTFGQGTKVEIK | 62 | 505 | 0.54 |  |  |  | 
5 | H1H15203P (antibody, V domains shown) VH: EVQLVESGGDLVQPGGSLRVSCAASGFTFSNYDMYWVRQAPGKGLEWVSVISGIGATTYYADSVKGRFTISRDNSKNTVFLQMNSLRAEDTAVYYCVKGGPIVATDYWGQGTLVTVSS VL: not shown | 76.5 | 826 | 0.51 |  |  |  | 
6 | H2aM15279N (antibody, V domains shown) VH: EVQLLESGGGLVQTGGSLRLSCAASGFTFSNYAMSWVRQAPGKGLEWVSAISDRGGSIYYADSVKGRFTISRDNSKNTKYLQMDSLRAEDTAVYYCAQDRGFGVFDYWGQGTLVTVSS VL: DIQMTQSPSSLSASVGDRVTITCQASQDIGNYLNWFQQRPGKAPNLLIYGASNLETGVPSRFSGGGSGTDFTFTISSLQPEDIATYFCQQYDNLPFTFGPGTKVEIK |  |  |  | 97 | 1.38e-10 | 93.9 | 825
7 | H1H15211P (antibody, V domains shown) VH: EVQLVESGGGLVQPGGSLRLSCVVSGFTFSNYDMSWVRQAPGRGLEWVSAIRGSGFNTYYADSVKGRFTISRDNSKNTLYLQMNSLRAEDTAVYYCAKDGSIVSMDYWGQGTLVTVSS VL: not shown | 47.4 | 369 | 0.76 |  |  |  | 
8 | H1H15177P (antibody, V domains shown) VH: EVQLVESGGGLVQPGGSLRLSCSASGFTFSSYDMSWVRQAPGKGLEWVSAIRGSGHTTYYADSVKGRFTISRDNSKNTLYLEMNSLRAEDTAVYYCVKDGSIVGFDPWGQGTLVTVSS VL: not shown | 45.7 | 629 | 0.6 |  |  |  | 
9 | H1H15228P2 (antibody, V domains shown) VH: EVQLVESGGGLVQPGGSLRLSCAVFGFTFSGYAMSWVRQAPGKGLEWVSAISGGGGSTYYTDSVKGRFTISRDNSKNTLYLQMNSLRAEDTAVYYCASYWNNGMDVWGQGTTVTVSS VL: not shown | 97.5 | 898 | 0.52 |  |  |  | 
10 | H1H15233P2 (antibody, V domains shown) VH: EVQLVESGGGLVQPGGSLRLSCAASGFSFSSYGMNWVRQAPGKGLEWVSAISGRGGNTYSADSVKGRFTISRDNSKNTLFLQMNGLRAEDSAFYYCAKVGTYSSSSPFDYWGQGTLVTVSS VL: not shown | 87.3 | 1370 | 0.46 |  |  |  | 
